Substrate in the data set: C[N+](C)(C)[C@@H](Cc1cnc[nH]1)C(=O)[O-]
In words: purified protein. Format: biochemical, Chlorobium limicola. Conditions: 0.116 mM K2Sx, 50 mM KPi pH 8.0, 25 °C.

This is an account of results in article PMC8302205.

B1: EanB (Chlorobium limicola DSM 245) (protein)
chain: MQNKNFRAPQSEAIGILYKLIETGSKHKNMYDHTEITTDSLLALLGSEKVKIIDVRSADAYNGWRMRGEVRGGHIKGAKSLPAKWLTDPEWLNIVRFKQIRPEDAIVLYGYTPEECEQTATRFKENGYNNVSVFHRFHPDWTGNDAFPMDRLEQYNRLVPAEWVNGLISGEEIPEYDNDTFIVCHAHYRNRDAYLSGHIPGATDMDTLALESPETWNRRTPEELKKALEEHGITASTTVVLYGKFMHPDNADEFPGSAAGHIGAIRLAFIMMYAGVEDVRVLNGGYQSWTDAGFAISKDDVPKTTVPEFGAPIPSRPEFAVDIDEAKEMLQSEDSDLVCVRSYPEYIGEVSGYNYIKKKGRIPGAIFAECGSDAYHMENYRNHDHTTREYHEIEDIWAKSGIIPKKHLAFYCGTGWRGSEAWFNALLMGWPRVSVYDGGWFEWSNDPENPYETGVPK
Broadly, the Km is the concentration of substrate that gives half-maximal velocity. By kcat is commonly meant the number of substrate molecules converted per active site and unit of time at saturation. Turning to B1, the Km worked out at 69.7 ± 8.7 µM and the kcat amounted to 0.0113 ± 0.00017 s⁻¹.

B2: EanB (Chlorobium limicola DSM 245; C116A/C184A/C339A/C370A) (protein)
chain: MQNKNFRAPQSEAIGILYKLIETGSKHKNMYDHTEITTDSLLALLGSEKVKIIDVRSADAYNGWRMRGEVRGGHIKGAKSLPAKWLTDPEWLNIVRFKQIRPEDAIVLYGYTPEEAEQTATRFKENGYNNVSVFHRFHPDWTGNDAFPMDRLEQYNRLVPAEWVNGLISGEEIPEYDNDTFIVAHAHYRNRDAYLSGHIPGATDMDTLALESPETWNRRTPEELKKALEEHGITASTTVVLYGKFMHPDNADEFPGSAAGHIGAIRLAFIMMYAGVEDVRVLNGGYQSWTDAGFAISKDDVPKTTVPEFGAPIPSRPEFAVDIDEAKEMLQSEDSDLVAVRSYPEYIGEVSGYNYIKKKGRIPGAIFAEAGSDAYHMENYRNHDHTTREYHEIEDIWAKSGIIPKKHLAFYCGTGWRGSEAWFNALLMGWPRVSVYDGGWFEWSNDPENPYETGVPK
On to B2, for which, where the note is “EanB C412-only variant”, the Km is 65.9 ± 3.4 µM and the kcat came to 0.0025 ± 0.00017 s⁻¹.
